B1: Bacillus thuringiensis insecticidal protein (Bt toxin) Cry2Ab30 (natural protein)
chain: MNSVLNSGRTTICDAYNVAAHDPFSFQHKSLDTVQKEWTEWKKNNHSLYLDPIVGTVASFLLKKVGSLVGKRILSELRNLIFPSGSTNLMQDILRETEKFLNQRLNTDTLARVNAELTGLQANVEEFNRQVDNFLNPNRNAVPLSITSSVNTMQQLFLNRLPQFQMQGYQLLLLPLFAQAANLHLSFIRDVILNADEWGISAATLRTYRDYLKNYTRDYSNYCINTYQSAFKGLNTRLHDMLEFRTYMFLNVFEYVSIWSLFKYQSLLVSSGANLYASGSGPQQTQSFTSQDWPFLYSLFQVNSNYVLNGFSGARLSNTFPNIVGLPGSTTTHALLAARVNYSGGISSGDIGASPFNQNFNCSTFLPPLLTPFVRSWLDSGSDREGVATVTNWQTESFETTLGLRSGAFTARGNSNYFPDYFIRNISGVPLVVRNEDLRRPLHYNEIRNIASPSGTPGGARAYMVSVHNRKNNIHAVHENGSMIHLAPNDYTGFTISPIHATQVNNQTRTFISEKFGNQGDSLRFEQNNTTARYTLRGNGNSYNLYLRVSSIGNSTIRVTINGRVYTATNVNTTTNNDGVNDNGARFSDINIGNVVASSNSDVPLDINVTLNSGTQFDLMNIMLVPTNISPLY
B2: 10th and 11th cadherin repeat domains of the Plutella xylostella cadherin (PxCR10–11), GST-tagged (domain or fragment)
chain: QAVDLKNEGCTADAGDCYSVYYRIVSDISESFKVDAEKNIISLTRELDRADGVRHIVTVAASNQPDATDNPTNVLTVTVFVREANPRPIFENEVYTAGISTMDSINRELFTVKATRTENLSIKYTIDPSSMVADTSLQSVQGSAFELDADSGVLTLKIKPTASMRGMFEFEVIATDTEQATDRAEVKVYIVSDNNRVSFLFQNQLTQVEQYRDFIAQTLSAGFKMACNIDEVIPSTDAGGSPVEGVTEVRAHFIRDNQPVTADVIEALRSDVELLTNIQRTLNTNLLVLTDFVTDISPSVTADAARVIIYLLGALSAALALALACLVLLAAYWFRTRALNRRLEA

What was measured:
[1] = target: B2; assay: BLI
[2] = target: Cry2Ab–AVM bioconjugate (Cry2Ab30 conjugated with 4''-O-succinyl avermectin) (Bacillus thuringiensis, 4''-O-succinyl avermectin joined by an amide bond to amino groups of Cry2Ab30; sites and number not determined (Lys 232 named as potential site from a homology model)); assay: BLI

In the case of B1, the koff [1] is reported as 0.000567 s⁻¹.

B2 showed a koff [2] of 0.000569 s⁻¹.

Source: publication PMC6783867 (2019)
